We go through one substance from patent US20260248917A1, “BICYCLIC PEPTIDE LIGANDS SPECIFIC FOR EPHA2 AND USES THEREOF” (BicycleTx Limited, priority 2019, published 2026).

Holding throughout (assay type): physicochemical
Series [1] is described as follows: pH of bulk or reconstituted solution. Conditions: 4 mg/mL bulk solution. The procedure: (§1) The bulk solution appearance, pH, density and BT5528 assay/related substances were recorded. Additional samples were subjected to three freeze (−20° C.)/thaw cycles, assessing appearance, pH, UPLC and sub-visible particulates (MFI) after each cycle.
(§2) The lyophilized product was placed on stability and tested for 1 month (according to Table 1-9) at accelerated storage of 25° C./60% RH. The lyophilized product was assessed by means of appearance, moisture content, and assay and related substances by UPLC. The reconstituted product was assessed on the basis of reconstitution time, solution appearance, pH and sub-visible particulates (T=0 only).

Series [2] can be described thus: Reconstitution time of lyophilized product. Conditions: 21.2 mg/vial reconstituted with 5.3 mL 0.02 M HCl, versus 0.01 M HCl. The procedure: as §2
Formulations 1 to 4 had significant adsorptive properties with the drug product adsorbing onto the glass vial above and in the reconstituted solution. Formulation 5 (2 mg/mL BT5528) produced the best results with drug product adsorbing only slightly above the solution and no adsorption noted within the solution. Variability in reconstitution time derives from the analytical procedure deviating throughout the testing of formulation 1. This occurred due to the severe adsorptive nature of formulation 1. For the 4 mg/mL solution agitation occurred immediately after addition of reconstitution medium producing a severe adsorptive spread above the solution. A settle period before agitation was performed for the 2 mg/mL producing a better reconstitution performance although adsorption was still noted. For the 1.3 mg/mL solution a settle period of 5 minutes was performed to minimize the agitation required. […]

A short description of series [3]: Appearance of solution (bulk or reconstituted), visual. The settings on record: 4 mg/mL bulk solution. The procedure:
as §1, §2

A short description of series [4]: Density of final solution. The settings on record: filtered 4 mg/mL solution. The procedure: as §1
The pH of the solution was measured and adjusted to target (pH 6.8-7.2). The pH was 7.79 pH after the addition of API and was adjusted to 7.19 pH using 0.1 M HCl solution. The solution was transferred to a 20 mL volumetric flask and make to final volume with WFI. The solution was filtered through a single 0.22 μm, PES membrane syringe filter. The final solution was a clear, colourless solution which was free from any visible particulates. The density of the final solution was measured, 1.025 g/cm^3. A pre- and post-filtration sample was passed to analytical for HPLC analysis. The remaining bulk solution was filled in 2 mL volumes into 2 mL glass vials and subjected to three, freeze/thaw cycles.

Take “BT5528: Bicycle toxin conjugate; TATA scaffold; peptide ligand (β-Ala)-Sar10-A(HArg)D-Ci(HyP)LVNPLCiiLHP(D-Asp)W(HArg)Ciii (SEQ ID NO: 1)”: the pH in series [1] (Freeze Thaw Cycle 1) amounted to 7.3; in series [1] (Freeze Thaw Cycle 2), 7.3; in series [1] (Freeze Thaw Cycle 3) it was 7.3; in series [1] (Pre Filtration), 7.2. The “reconstitution time and appearance of the reconstituted product (oily droplet formation)” value in series [2] is given as “improved”. Moreover, the Appearance entry in series [3] (Freeze Thaw Cycle 1 (−20° C.)) was “Clear, colourless solution free”; in series [3] (Freeze Thaw Cycle 2), “Clear, colourless solution free”; in series [3] (Freeze Thaw Cycle 3), “Clear, colourless solution free”; in series [3] (Post Filtration), “Clear, colourless solution free”; in series [3] (Pre Filtration), “Clear, colourless solution free”. The “density of the final solution” value in series [4] worked out at 1.025 g/mL.
